Experimental data published in patent US12467929.

Assays:
[1] = molecular target: recombinant UBE3A protein (Homo sapiens (Human)) (UniProt Q05086); assay: 2-step Simoa; capture GTX; UBE3A 1 ng/ml
[2] = molecular target: recombinant UBE3A protein (Homo sapiens (Human)) (UniProt Q05086); assay: 3-step Simoa; capture GTX; UBE3A 1 ng/ml
[3] = molecular target: recombinant UBE3A protein (Homo sapiens (Human)) (UniProt Q05086); assay: 2-step Simoa; capture GTX; UBE3A 10 ng/ml
[4] = molecular target: recombinant UBE3A protein (Homo sapiens (Human)) (UniProt Q05086); assay: 3-step Simoa; capture GTX; UBE3A 10 ng/ml
[5] = molecular target: recombinant UBE3A protein (Homo sapiens (Human)) (UniProt Q05086); assay: 2-step Simoa; capture Novus; UBE3A 1 ng/ml
[6] = molecular target: recombinant UBE3A protein (Homo sapiens (Human)) (UniProt Q05086); assay: 3-step Simoa; capture GTX; UBE3A 0.1 ng/ml
[7] = molecular target: recombinant UBE3A protein (Homo sapiens (Human)) (UniProt Q05086); assay: 3-step Simoa; capture Novus; UBE3A 1 ng/ml
[8] = molecular target: recombinant UBE3A protein (Homo sapiens (Human)) (UniProt Q05086); assay: 2-step Simoa; capture MS 2F6; UBE3A 1 ng/ml
[9] = molecular target: recombinant UBE3A protein (Homo sapiens (Human)) (UniProt Q05086); assay: 2-step Simoa; capture Novus; UBE3A 10 ng/ml
[10] = molecular target: recombinant UBE3A protein (Homo sapiens (Human)) (UniProt Q05086); assay: 3-step Simoa; capture GTX; UBE3A 0.01 ng/ml
[11] = molecular target: recombinant UBE3A protein (Homo sapiens (Human)) (UniProt Q05086); assay: 3-step Simoa; capture MS 2F6; UBE3A 1 ng/ml
[12] = molecular target: recombinant UBE3A protein (Homo sapiens (Human)) (UniProt Q05086); assay: 3-step Simoa; capture Novus; UBE3A 10 ng/ml
[13] = molecular target: recombinant UBE3A protein (Homo sapiens (Human)) (UniProt Q05086); assay: 2-step Simoa; capture GTX; UBE3A 0.01 ng/ml
[14] = molecular target: recombinant UBE3A protein (Homo sapiens (Human)) (UniProt Q05086); assay: 2-step Simoa; capture MS 2F6; UBE3A 10 ng/ml
[15] = molecular target: recombinant UBE3A protein (Homo sapiens (Human)) (UniProt Q05086); assay: 2-step Simoa; capture Novus; UBE3A 0.1 ng/ml
[16] = molecular target: recombinant UBE3A protein (Homo sapiens (Human)) (UniProt Q05086); assay: 3-step Simoa; capture MS 2F6; UBE3A 10 ng/ml
[17] = molecular target: recombinant UBE3A protein (Homo sapiens (Human)) (UniProt Q05086); assay: 3-step Simoa; capture Novus; UBE3A 0.1 ng/ml
[18] = molecular target: recombinant UBE3A protein (Homo sapiens (Human)) (UniProt Q05086); assay: 2-step Simoa; capture MS 2F6; UBE3A 0.1 ng/ml
[19] = molecular target: recombinant UBE3A protein (Homo sapiens (Human)) (UniProt Q05086); assay: 2-step Simoa; capture Novus; UBE3A 0.01 ng/ml
[20] = molecular target: recombinant UBE3A protein (Homo sapiens (Human)) (UniProt Q05086); assay: 3-step Simoa; capture MS 2F6; UBE3A 0.1 ng/ml
[21] = molecular target: recombinant UBE3A protein (Homo sapiens (Human)) (UniProt Q05086); assay: 3-step Simoa; capture Novus; UBE3A 0.01 ng/ml
[22] = molecular target: recombinant UBE3A protein (Homo sapiens (Human)) (UniProt Q05086); assay: 2-step Simoa; capture MS 2F6; UBE3A 0.01 ng/ml
[23] = molecular target: recombinant UBE3A protein (Homo sapiens (Human)) (UniProt Q05086); assay: Simoa head-to-head, Table 10; capture GTX; UBE3A 4.00 ng/ml

Chain of UniProt Q05086 (Q05086 whole entry): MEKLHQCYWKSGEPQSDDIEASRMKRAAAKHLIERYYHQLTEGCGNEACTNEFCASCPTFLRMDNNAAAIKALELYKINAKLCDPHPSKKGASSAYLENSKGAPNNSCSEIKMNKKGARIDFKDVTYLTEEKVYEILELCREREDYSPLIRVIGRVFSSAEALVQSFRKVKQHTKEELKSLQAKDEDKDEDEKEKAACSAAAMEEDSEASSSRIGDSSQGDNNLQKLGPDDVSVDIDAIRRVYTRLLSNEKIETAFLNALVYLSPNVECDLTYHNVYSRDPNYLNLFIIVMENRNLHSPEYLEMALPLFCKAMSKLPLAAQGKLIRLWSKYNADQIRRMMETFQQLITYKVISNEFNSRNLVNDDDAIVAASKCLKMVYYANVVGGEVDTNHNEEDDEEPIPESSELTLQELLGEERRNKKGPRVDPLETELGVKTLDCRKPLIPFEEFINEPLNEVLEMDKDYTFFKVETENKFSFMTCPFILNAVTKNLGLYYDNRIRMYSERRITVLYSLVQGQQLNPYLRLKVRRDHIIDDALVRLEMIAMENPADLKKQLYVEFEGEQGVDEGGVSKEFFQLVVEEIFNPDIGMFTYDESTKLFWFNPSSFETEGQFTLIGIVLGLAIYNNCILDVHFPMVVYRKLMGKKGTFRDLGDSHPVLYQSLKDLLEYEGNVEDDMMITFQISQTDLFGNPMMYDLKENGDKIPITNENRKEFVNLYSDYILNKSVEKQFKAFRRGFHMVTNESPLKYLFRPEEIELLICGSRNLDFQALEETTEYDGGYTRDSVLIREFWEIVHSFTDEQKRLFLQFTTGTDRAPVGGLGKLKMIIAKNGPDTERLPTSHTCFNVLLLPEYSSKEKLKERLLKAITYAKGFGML

With NB500-240 (Novus) (antibody) the AEB1 [1] was 0.0247, the AEB2 [1] was 0.0237 and the Ave AEB [1] was 0.0242. For the same substance, the Signal to Background [1] was 3.26, the AEB1 [2] was 0.0097 and the AEB2 [2] was 0.0091. For the same substance, the Ave AEB [2] was 0.0094, the Signal to Background [2] was 1.54 and the AEB1 [3] was 0.126. It also gave an AEB2 [3] of 0.13, an Ave AEB [3] of 0.128 and a Signal to Background [3] of 17.3. For the same substance, the AEB1 [4] was 0.0356, the AEB2 [4] was 0.0426 and the Ave AEB [4] was 0.0391. The Signal to Background [4] was 6.42, the AEB1 [5] was 0.0174 and the AEB2 [5] was 0.0179. The Ave AEB [5] was 0.0177, the Signal to Background [5] was 1.06 and the AEB1 [6] was 0.005. The AEB2 [6] was 0.0068, the Ave AEB [6] was 0.0059 and the Signal to Background [6] was 0.97. For the same substance, the AEB1 [7] was 0.0125, the AEB2 [7] was 0.0145 and the Ave AEB [7] was 0.0135. For the same substance, the Signal to Background [7] was 1.29, the AEB1 [8] was 0.0212 and the AEB2 [8] was 0.0206. The Ave AEB [8] was 0.0209, the Signal to Background [8] was 1.27 and the AEB1 [9] was 0.0441. It also gave an AEB2 [9] of 0.0461, an Ave AEB [9] of 0.0451 and a Signal to Background [9] of 2.71. The AEB1 [10] was 0.0064, the AEB2 [10] was 0.0053 and the Ave AEB [10] was 0.0059. The Signal to Background [10] was 0.96, the AEB1 [11] was 0.0095 and the AEB2 [11] was 0.009. For the same substance, the Ave AEB [11] was 0.0092, the Signal to Background [11] was 1.06 and the AEB1 [12] was 0.0168. The AEB2 [12] was 0.0179, the Ave AEB [12] was 0.0173 and the Signal to Background [12] was 1.65. The AEB1 [13] was 0.0082, the AEB2 [13] was 0.0072 and the Ave AEB [13] was 0.0077. For the same substance, the Signal to Background [13] was 1.04, the AEB1 [14] was 0.0437 and the AEB2 [14] was 0.0449. It also gave an Ave AEB [14] of 0.0443, a Signal to Background [14] of 2.7 and an AEB1 [15] of 0.0167. For the same substance, the AEB2 [15] was 0.0132, the Ave AEB [15] was 0.0149 and the Signal to Background [15] was 0.9. For the same substance, the AEB1 [16] was 0.0153, the AEB2 [16] was 0.0116 and the Ave AEB [16] was 0.0134. It also gave a Signal to Background [16] of 1.54, an AEB1 [17] of 0.014 and an AEB2 [17] of 0.0114. The Ave AEB [17] was 0.0127, the Signal to Background [17] was 1.21 and the AEB1 [18] was 0.0164. The AEB2 [18] was 0.0185, the Ave AEB [18] was 0.0175 and the Signal to Background [18] was 1.06. For the same substance, the AEB1 [19] was 0.0255, the AEB2 [19] was 0.0175 and the Ave AEB [19] was 0.0215. The Signal to Background [19] was 1.29, the AEB1 [20] was 0.0107 and the AEB2 [20] was 0.0084. For the same substance, the Ave AEB [20] was 0.0095, the Signal to Background [20] was 1.1 and the AEB1 [21] was 0.011. For the same substance, the AEB2 [21] was 0.0112, the Ave AEB [21] was 0.0111 and the Signal to Background [21] was 1.06. For the same substance, the AEB1 [22] was 0.0183, the AEB2 [22] was 0.0162 and the Ave AEB [22] was 0.0172. For the same substance, the Signal to Background [22] was 1.05, the AEB1 [23] was 0.0402 and the AEB2 [23] was 0.0398. The Ave AEB [23] was 0.04 and the Signal to Background [23] was 19.2.

“anti-UBE3A antibody 3E5 (SAB1404508-100 ug, Millipore-Sigma)” was tested, and the AEB1 [1] was 0.152, the AEB2 [1] was 0.157 and the Ave AEB [1] was 0.154. The AEB2 [2] was 0.0774, the Ave AEB [2] was 0.0774 and the Signal to Background [2] was 9.06. It also gave an AEB1 [3] of 0.724, an Ave AEB [3] of 0.724 and an AEB1 [4] of 0.404. For the same substance, the AEB2 [4] was 0.425, the Ave AEB [4] was 0.414 and the Signal to Background [4] was 48.5. It also gave an AEB1 [5] of 0.0412, an AEB2 [5] of 0.0426 and an Ave AEB [5] of 0.0419. For the same substance, the Signal to Background [5] was 1.68, the AEB1 [6] was 0.0204 and the AEB2 [6] was 0.0181. For the same substance, the Ave AEB [6] was 0.0192, the Signal to Background [6] was 2.25 and the AEB1 [7] was 0.0276. It also gave an AEB2 [7] of 0.0233, an Ave AEB [7] of 0.0254 and a Signal to Background [7] of 2.68. It also gave an AEB1 [8] of 0.0424, an AEB2 [8] of 0.0451 and an Ave AEB [8] of 0.0437. The Signal to Background [8] was 3.9, the AEB1 [9] was 0.174 and the AEB2 [9] was 0.164. The Ave AEB [9] was 0.169, the Signal to Background [9] was 6.77 and the AEB1 [10] was 0.0084. The AEB2 [10] was 0.0082, the Ave AEB [10] was 0.0083 and the Signal to Background [10] was 0.972. It also gave an AEB1 [11] of 0.0206, an AEB2 [11] of 0.0228 and an Ave AEB [11] of 0.0217. The Signal to Background [11] was 5.52, the AEB1 [12] was 0.159 and the AEB2 [12] was 0.154. The Ave AEB [12] was 0.156, the Signal to Background [12] was 16.5 and the AEB1 [13] was 0.0162. The AEB2 [13] was 0.0168, the Ave AEB [13] was 0.0165 and the AEB1 [14] was 0.334. The AEB2 [14] was 0.338, the Ave AEB [14] was 0.336 and the Signal to Background [14] was 30. It also gave an AEB1 [15] of 0.0237, an AEB2 [15] of 0.0272 and an Ave AEB [15] of 0.0255. The Signal to Background [15] was 1.02, the AEB1 [16] was 0.177 and the AEB2 [16] was 0.188. For the same substance, the Ave AEB [16] was 0.183, the Signal to Background [16] was 46.6 and the AEB1 [17] was 0.0142. For the same substance, the AEB2 [17] was 0.0119, the Ave AEB [17] was 0.013 and the Signal to Background [17] was 1.38. It also gave an AEB1 [18] of 0.0169, an AEB2 [18] of 0.0141 and an Ave AEB [18] of 0.0155. For the same substance, the Signal to Background [18] was 1.38, the AEB1 [19] was 0.0302 and the AEB2 [19] was 0.0257. For the same substance, the Ave AEB [19] was 0.028, the Signal to Background [19] was 1.12 and the AEB1 [20] was 0.0063. For the same substance, the AEB2 [20] was 0.0064, the Ave AEB [20] was 0.0063 and the Signal to Background [20] was 1.62. For the same substance, the AEB1 [21] was 0.0105, the AEB2 [21] was 0.0102 and the Ave AEB [21] was 0.0104. The Signal to Background [21] was 1.09, the AEB1 [22] was 0.0113 and the AEB2 [22] was 0.0141. The Ave AEB [22] was 0.0127, the Signal to Background [22] was 1.13 and the AEB1 [23] was 0.361. For the same substance, the AEB2 [23] was 0.362, the Ave AEB [23] was 0.361 and the Signal to Background [23] was 15.9.
